From the Human Domainome abundance scans (Beltran et al. 2025)
± gives the uncertainty stated by the source.

B1: Tumor protein 63, residues 545 to 610; numbered along this chain, Q9H3D4 (parent)
chain: TDCSIVSFLARLGCSSCLDYFTTQGLTTIYQIEHYSMDDLASLKIPEQFRHAIWKGILDHRQLHEF

Variants of: B1
Assay: abundance fitness (aPCA) (normalised: wild type 0, dead -1); higher = more abundant; growth selection in yeast, the domain comes from the species named
Details: Homo sapiens

In order of rising abundance fitness:
1. TDCSIVSFLARLGCSSCLDYFTTQGLTTIYQIEHYSMDDLASLKIIEQFRHAIWKGILDHRQLHEF  -1.01 ± 0.1
2. TDCSIVSFLARLGCSSCLDYRTTQGLTTIYQIEHYSMDDLASLKIPEQFRHAIWKGILDHRQLHEF  -0.964 ± 0.058
3. TDCSIVSFLARLPCSSCLDYFTTQGLTTIYQIEHYSMDDLASLKIPEQFRHAIWKGILDHRQLHEF  -0.935 ± 0.13
4. TDCSIVSRLARLGCSSCLDYFTTQGLTTIYQIEHYSMDDLASLKIPEQFRHAIWKGILDHRQLHEF  -0.918 ± 0.079
5. TDCSIVSSLARLGCSSCLDYFTTQGLTTIYQIEHYSMDDLASLKIPEQFRHAIWKGILDHRQLHEF  -0.822 ± 0.044
6. TDCSIVSFLARLGCSSCLDYFTTQGLPTIYQIEHYSMDDLASLKIPEQFRHAIWKGILDHRQLHEF  -0.82 ± 0.07
7. TDCSIVSFLARLVCSSCLDYFTTQGLTTIYQIEHYSMDDLASLKIPEQFRHAIWKGILDHRQLHEF  -0.804 ± 0.042
8. TDCSIVSFLARLGCSSCLDYFTTQGPTTIYQIEHYSMDDLASLKIPEQFRHAIWKGILDHRQLHEF  -0.692 ± 0.065
9. TDCSIVSFLARLGCSSCLDYFTTQGLTTIYQIEHYSMDDLASLKEPEQFRHAIWKGILDHRQLHEF  -0.676 ± 0.06
10. TDCSIVSFLARLGCSSGLDYFTTQGLTTIYQIEHYSMDDLASLKIPEQFRHAIWKGILDHRQLHEF  -0.584 ± 0.036
11. TDCSIVSFLARLGCSSCLDYFTTQGDTTIYQIEHYSMDDLASLKIPEQFRHAIWKGILDHRQLHEF  -0.552 ± 0.054
12. TDCSIVSFLARLGCSSCLDYFTTQGLTTIYQIEHYSMDFLASLKIPEQFRHAIWKGILDHRQLHEF  -0.478 ± 0.037
13. TDCSIVSHLARLGCSSCLDYFTTQGLTTIYQIEHYSMDDLASLKIPEQFRHAIWKGILDHRQLHEF  -0.41 ± 0.14
14. TDCSIVSFLARLGCSSCLDYFTTQGLTTIYQIEHYSMDDLASLKIPEQFRHAIWKNILDHRQLHEF  -0.361 ± 0.035
15. TDCSIVSFLARLGCSSFLDYFTTQGLTTIYQIEHYSMDDLASLKIPEQFRHAIWKGILDHRQLHEF  -0.299 ± 0.033
16. TDCSIVSFLARLGCSSCLDYFTTQGLTTRYQIEHYSMDDLASLKIPEQFRHAIWKGILDHRQLHEF  -0.285 ± 0.023
17. TTCSIVSFLARLGCSSCLDYFTTQGLTTIYQIEHYSMDDLASLKIPEQFRHAIWKGILDHRQLHEF  -0.185 ± 0.041
18. TDCSIVSFLARLGCSSCLDYFYTQGLTTIYQIEHYSMDDLASLKIPEQFRHAIWKGILDHRQLHEF  -0.177 ± 0.068
19. TDCSIVSFLARLGCSSCLDYFTTQGLTTAYQIEHYSMDDLASLKIPEQFRHAIWKGILDHRQLHEF  -0.175 ± 0.042
20. TDCSIVSFLNRLGCSSCLDYFTTQGLTTIYQIEHYSMDDLASLKIPEQFRHAIWKGILDHRQLHEF  -0.146 ± 0.054
21. TDCSIVSFLARLGCSSCLDYFTTQGLTTIYQIEHYSNDDLASLKIPEQFRHAIWKGILDHRQLHEF  -0.132 ± 0.037
22. TDCSIVSFLARLGKSSCLDYFTTQGLTTIYQIEHYSMDDLASLKIPEQFRHAIWKGILDHRQLHEF  -0.125 ± 0.03
23. TDCSIVSFLARLGCSSCLYYFTTQGLTTIYQIEHYSMDDLASLKIPEQFRHAIWKGILDHRQLHEF  -0.103 ± 0.024
24. TDCSIVSFLARLGCSSCLDYFTTQGLTTIYQIEHYSCDDLASLKIPEQFRHAIWKGILDHRQLHEF  -0.083 ± 0.039
25. TDCSIVSFLARLGCSSCLCYFTTQGLTTIYQIEHYSMDDLASLKIPEQFRHAIWKGILDHRQLHEF  -0.079 ± 0.044
26. TDCSIVSFLARLGCSSCLDYFTTQGLFTIYQIEHYSMDDLASLKIPEQFRHAIWKGILDHRQLHEF  -0.063 ± 0.035
27. TDCSIVSFLARLGCSSCLDYFTTQGLRTIYQIEHYSMDDLASLKIPEQFRHAIWKGILDHRQLHEF  -0.053 ± 0.022
28. TDCSIVSFLARLGCSSCLDYFTTQGLTTIYQIEHYSMDDLASLKIPEQFRHAIWKGILDHEQLHEF  -0.047 ± 0.035
29. TDCSIVSFLARLGCSSCLDYFTTQGLTTIYQIEHYSMDDLASLKIPEQFRHPIWKGILDHRQLHEF  -0.043 ± 0.031
30. TDCSIVSFLARLGCSSCLDYFTTQGLTTIYQIEHYSMDDLASLKIPEQFRHAIWQGILDHRQLHEF  -0.038 ± 0.071
31. TDCSIVSFLARLGCSSCLDYFTTQGLTTIYQIEHYSMDDLASLKIPEQFRHAIWNGILDHRQLHEF  -0.038 ± 0.029
32. TDCSIVSFLARLGCSSCLDYFTTQGLTTIYQIEHYSMDDLASLKIPEQFRHAIWKGILDHRQLHEL  -0.022 ± 0.072
33. TDCSIVSFLARLGCSSCLDYFKTQGLTTIYQIEHYSMDDLASLKIPEQFRHAIWKGILDHRQLHEF  -0.017 ± 0.028
34. TDCSIVSFLARLGCSSCVDYFTTQGLTTIYQIEHYSMDDLASLKIPEQFRHAIWKGILDHRQLHEF  -0.013 ± 0.022
35. TDCSIVSFLARLNCSSCLDYFTTQGLTTIYQIEHYSMDDLASLKIPEQFRHAIWKGILDHRQLHEF  -0.013 ± 0.058
36. TDCSIVSFLARLGCSSCLDYFTTQGLTTIYQIEHYSMDDLASLKIPEQFRMAIWKGILDHRQLHEF  -0.009 ± 0.027
37. TDCSIVSFLARLGCSSCLDYFTTQGLTTIYQIEHYSMDDLASLKIPEQERHAIWKGILDHRQLHEF  -0.007 ± 0.036
38. TDCSIVSFLARLGCSSCLDYFTTQGLTTIYQIEHYSMDDLASLKIPEQFRHAIWKGILDHRQLNEF  -0.007 ± 0.041
39. TDCSIVSFLARLGCSSCLDYFTTQGLTTIYQIEHYSMDDLASLKIPEQHRHAIWKGILDHRQLHEF  -0.004 ± 0.042
40. TDCSIVSFLARLGCSSCLDYFTTQGLTTIYQIEHYSMVDLASLKIPEQFRHAIWKGILDHRQLHEF  0.01 ± 0.032
41. TDCSIVSFLARLGCSSCLDYFTTQGLTTIYQIEHYSMDDLASLKIPEQFRHAIWKGILDHRQLHEY  0.044 ± 0.1
